Results on one molecule are retold here after patent US20100111970A1 (published 2010).

As usually defined, the koff is the rate constant with which the complex falls apart. A higher koff goes with fast dissociation. The term Kd denotes the equilibrium constant for the complex coming apart.

Test [1] concerns the target T1, human nerve growth factor (NGF) (human, UniProt P01138 122-241).
T1 construct: Immobilized on CM5 chip in BIAcore assays; also called human NGF; hNGF
The experiment in a line: BIAcore SPR screening of Fab clones on immobilized human NGF. The protocol:
(§1) Affinities of anti-NGF Fabs and monoclonal antibodies were determined using the BIAcore3000™ surface plasmon resonance (SPR) system (BIAcore, INC, Piscaway N.J.). CM5 chips were activated with N-ethyl-N′-(3-dimethylaminopropyl)-carbodiinide hydrochloride (EDC) and N-hydroxysuccinimide (NHS) according to the supplier's instructions. Human NGF was diluted into 10 mM sodium acetate pH 4.0 and injected over the activated chip at a concentration of 0.005 mg/mL. Using variable flow time across the individual chip channels, two ranges of antigen density were achieved: 100-200 response units (RU) for detailed kinetic studies and 500-600 RU for screening assays. The chip was blocked with ethanolamine. […] HBS-EP buffer (0.01M HEPES, pH 7.4, 0.15 NaCl, 3 mM EDTA, 0.005% Surfactant […]) was used as running buffer for all the BIAcore assays.
(§2) For affinity screening experiments, each library was further paired with the corresponding CDR-grafted light or heavy chain (for example, the H1/H2 library was paired with CDR-grafted light chain), the antibody was expressed, and affinity to human NGF of the individual clones was screened using the BIACORE surface plasmon resonance (SPR) system (BIAcore, Inc. Piscataway, N.J.) according to the manufacturer's instructions and as described above. koff, kₒₙ and KD were determined. […]
In general terms: Surface plasmon resonance follows binding to a sensor surface in real time, without labels.

Test [2] has as its target T1, human nerve growth factor (NGF). In words: BIAcore SPR; KD calculated from koff using kon 4e4 M^-1s^-1. The protocol:
as §1, §2

T1 sequence (P01138 122-241 limits assumed): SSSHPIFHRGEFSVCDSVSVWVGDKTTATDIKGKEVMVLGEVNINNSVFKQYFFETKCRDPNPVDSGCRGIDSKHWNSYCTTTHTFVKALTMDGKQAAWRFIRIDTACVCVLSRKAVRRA

B1: light chain library clone L81 (Fab, V domains shown)
VH: QVQLQESGPGLVKPSETLSLTCTVSGFSLIGYDINWIRQPPGKGLEWIGMIWGDGTTDYNSALKSRVTISKDTSKNQFSLKLSSVTAADTAVYYCARGGYYYGTSYYFDYWGQGTLVTVS
VL: DIQMTQSPSSLSASVGDRVTITCRAFQAISNQLNWYQQKPGKAPKLLIYYTSRFHTGVPSRFSGSGSGTDFTFTISSLQPEDIATYYCQQSKTLPYTFGQGTKLEIKR
notes: Substitutions derived by comparing printed CDRs with the 8L2-6D5 control
Consider B1, for which, in test [1], the off-rate constant (koff) stood at 0.00074 s⁻¹. The Kd in test [2] is 18 nM.
